Here are results for one substance from US20250320294A1.

Like-named read-outs stand apart in the source and are kept apart here.

Assay [1] deals with human-CD45RO-ECD-His (human) (UniProt P08575). Briefly: ELISA, human-CD45RO-ECD-His-coated plates.
The target is the same in assay [2]. Briefly: ELISA, human-CD45RO-ECD-His-coated plates. The source holds these as a separate data set.
Assay [3] shares this target. Briefly: SPR, captured human-CD45RO-ECD-His, 1:1 binding.

For the substance “CD45RO Monoclonal Antibody (UCHL1) (eBioscience™)”, the 50% effective concentration (EC50) in assay [1] came out at 0.328 nM. Moreover, the concentration giving a half-maximal response (EC50) in assay [2] was determined as 0.544 nM. In assay [3], this substance yielded a Kd of 433 nM, a koff of 0.00373 s⁻¹ and a kon of 8610 M⁻¹ s⁻¹.

What is called EC50 is the concentration giving half of the maximal effect. The Kd is the equilibrium constant for the complex coming apart. A higher Kd goes with a looser complex. The term koff denotes the rate constant with which the complex falls apart. The low end stands for slow dissociation, the high end for fast dissociation. What is called kon is a measure of how fast the partners come together. Lower therefore signals slow association.
